{"source": "paper PMC11283454", "system": "hATE1 WT (human)", "test": "EMSA", "data": [{"substance": "tRNAArg acceptor arm", "values": [{"measurement": "Kd", "result": 1600, "unit": "nM"}]}]}
